Experimental data as given in US20180127503A1 (EUREKA THERAPEUTICS, published 2018).

Tests used:
[1] = target: T1, human ROR2 expressed on the cell surface (human, UniProt Q01974 34-943); experiment: flow cytometry, RG187 cells (osteosarcoma); set-up: unit not given here
T1 construct: Endogenous ROR2 of human tumour cell lines; also called cell surface ROR2; ROR2 on tumour cell lines
Description: (§1) Human tumour cell lines were authenticated using short tandem repeat (STR) analysis. They were cultured in RPMI1640 (Cellgro) supplemented with 10% fetal bovine serum (FBS, Life Technologies) at 37° C. in a 5% CO₂ humidified incubator. They were harvested, washed in PBS and reacted with ROR2-IgG at 1 ug/10⁶ tumour cells on ice for an hour. #901-IgG was used as a negative control at the same dose. After washing, a secondary PE-conjugated goat anti-human IgG, Fcγ fragment specific (1:100, Jackson ImmunoResearch) was added for another 30 min incubation. Staining was analyzed on a FACSCalibur (BD Biosciences). ROR2 (full length) antibody binding towards multiple cancer cell lines were compared with Rituxan and Herceptin antibodies. The cancer cell lines were derived from breast cancer, colorectal cancer, mesothelioma, hepatocellular carcinoma, ovarian cancer, osteosarcoma, neuroblastoma, etc. ROR2 #90 antibody could recognize most of the tumour cells tested, and in some cases, the binding intensity was higher than Herceptin (see Tables 8 to 10).

[2] = target: T1, human ROR2 expressed on the cell surface; experiment: flow cytometry, HTB26 (MDA-MB-231) cells (breast CA); set-up: unit not given here
Description: as §1

[3] = target: T1, human ROR2 expressed on the cell surface; experiment: flow cytometry, SKNJB cells (neuroblastoma); set-up: unit not given here
Description: as §1

[4] = target: T1, human ROR2 expressed on the cell surface; experiment: flow cytometry, HTB37-Caco2 cells (CRC); set-up: unit not given here
Description: as §1

[5] = target: T1, human ROR2 expressed on the cell surface; experiment: flow cytometry, CHP100 cells (EW/PNET); set-up: unit not given here
Description: as §1

[6] = target: T1, human ROR2 expressed on the cell surface; experiment: flow cytometry, IMR32 cells (neuroblastoma); set-up: unit not given here
Description: as §1

[7] = target: T1, human ROR2 expressed on the cell surface; experiment: flow cytometry, BE(2)S cells (neuroblastoma); set-up: unit not given here
Description: as §1

[8] = target: T1, human ROR2 expressed on the cell surface; experiment: flow cytometry, MCF7 cells (breast CA); set-up: unit not given here
Description: as §1

[9] = target: T1, human ROR2 expressed on the cell surface; experiment: flow cytometry, CRL1427 cells (osteosarcoma); set-up: unit not given here
Description: as §1

[10] = target: T1, human ROR2 expressed on the cell surface; experiment: flow cytometry, SKNSH cells (neuroblastoma); set-up: unit not given here
Description: as §1

[11] = target: T1, human ROR2 expressed on the cell surface; experiment: flow cytometry, NMB7 cells (neuroblastoma); set-up: unit not given here
Description: as §1

[12] = target: T1, human ROR2 expressed on the cell surface; experiment: flow cytometry, OVCAR3 cells (ovarian CA); set-up: unit not given here
Description: as §1

[13] = target: T1, human ROR2 expressed on the cell surface; experiment: flow cytometry, NB5 cells (neuroblastoma); set-up: unit not given here
Description: as §1

[14] = target: T1, human ROR2 expressed on the cell surface; experiment: flow cytometry, HTB63 cells (melanoma); set-up: unit not given here
Description: as §1

[15] = target: T1, human ROR2 expressed on the cell surface; experiment: flow cytometry, SKMEL-5 cells (melanoma); set-up: unit not given here
Description: as §1

[16] = target: T2, human ROR2 extracellular domain (ROR2 ECD recombinant protein) (human, UniProt Q01974 34-403); experiment: kinetic binding analysis, full length IgG1 on human ROR2-ECD
T2 construct: also called human ROR2-ECD; hROR2-ECD

[17] = target: T1, human ROR2 expressed on the cell surface; experiment: flow cytometry, TC71 cells (EW/PNET); set-up: unit not given here
Description: as §1

[18] = target: T1, human ROR2 expressed on the cell surface; experiment: flow cytometry, TC32 cells (EW/PNET); set-up: unit not given here
Description: as §1

[19] = target: T1, human ROR2 expressed on the cell surface; experiment: flow cytometry, H345 cells (SCLC); set-up: unit not given here
Description: as §1

[20] = target: T1, human ROR2 expressed on the cell surface; experiment: flow cytometry, OUMS 27 cells (chondrosarcoma); set-up: unit not given here
Description: as §1

[21] = target: T1, human ROR2 expressed on the cell surface; experiment: flow cytometry, COLO 205 cells (CRC); set-up: unit not given here
Description: as §1

[22] = target: T1, human ROR2 expressed on the cell surface; experiment: flow cytometry, HEP G2 cells (HCC); set-up: unit not given here
Description: as §1

[23] = target: T1, human ROR2 expressed on the cell surface; experiment: flow cytometry, HTB27 cells (breast CA); set-up: unit not given here
Description: as §1

[24] = target: T1, human ROR2 expressed on the cell surface; experiment: flow cytometry, OCM1 cells (melanoma); set-up: unit not given here
Description: as §1

[25] = target: T1, human ROR2 expressed on the cell surface; experiment: flow cytometry, MCF7-Luc cells (breast CA); set-up: unit not given here
Description: as §1

[26] = target: T1, human ROR2 expressed on the cell surface; experiment: flow cytometry, SKMEL28 cells (melanoma); set-up: reference not given here
Description: as §1

[27] = target: T1, human ROR2 expressed on the cell surface; experiment: flow cytometry, SKOV3 cells (ovarian CA); set-up: unit not given here
Description: as §1

T1 sequence (Q01974 34-943 limits assumed): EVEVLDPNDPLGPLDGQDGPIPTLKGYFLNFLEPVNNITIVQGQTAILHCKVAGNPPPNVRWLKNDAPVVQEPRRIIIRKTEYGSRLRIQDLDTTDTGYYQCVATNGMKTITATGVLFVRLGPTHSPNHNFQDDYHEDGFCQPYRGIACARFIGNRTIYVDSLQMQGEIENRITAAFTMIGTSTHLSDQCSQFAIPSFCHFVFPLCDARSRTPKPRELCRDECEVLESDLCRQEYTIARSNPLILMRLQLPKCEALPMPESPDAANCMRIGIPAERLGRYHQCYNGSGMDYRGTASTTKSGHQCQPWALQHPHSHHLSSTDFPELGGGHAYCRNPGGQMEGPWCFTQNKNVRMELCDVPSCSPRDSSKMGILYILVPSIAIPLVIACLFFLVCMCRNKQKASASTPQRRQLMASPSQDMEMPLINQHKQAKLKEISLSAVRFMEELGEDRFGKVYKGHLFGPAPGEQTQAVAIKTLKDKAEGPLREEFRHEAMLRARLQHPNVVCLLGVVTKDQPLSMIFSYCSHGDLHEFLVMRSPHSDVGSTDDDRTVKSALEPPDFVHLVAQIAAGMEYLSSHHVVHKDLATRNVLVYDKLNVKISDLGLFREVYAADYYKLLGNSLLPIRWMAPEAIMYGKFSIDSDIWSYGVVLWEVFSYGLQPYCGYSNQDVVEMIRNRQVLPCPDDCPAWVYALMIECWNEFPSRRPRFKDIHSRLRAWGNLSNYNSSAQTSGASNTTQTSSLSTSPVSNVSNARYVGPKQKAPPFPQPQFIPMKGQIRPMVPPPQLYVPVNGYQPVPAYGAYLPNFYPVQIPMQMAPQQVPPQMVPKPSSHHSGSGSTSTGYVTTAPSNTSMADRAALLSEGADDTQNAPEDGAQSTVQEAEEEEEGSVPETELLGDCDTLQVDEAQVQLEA
T2 sequence (Q01974 34-403): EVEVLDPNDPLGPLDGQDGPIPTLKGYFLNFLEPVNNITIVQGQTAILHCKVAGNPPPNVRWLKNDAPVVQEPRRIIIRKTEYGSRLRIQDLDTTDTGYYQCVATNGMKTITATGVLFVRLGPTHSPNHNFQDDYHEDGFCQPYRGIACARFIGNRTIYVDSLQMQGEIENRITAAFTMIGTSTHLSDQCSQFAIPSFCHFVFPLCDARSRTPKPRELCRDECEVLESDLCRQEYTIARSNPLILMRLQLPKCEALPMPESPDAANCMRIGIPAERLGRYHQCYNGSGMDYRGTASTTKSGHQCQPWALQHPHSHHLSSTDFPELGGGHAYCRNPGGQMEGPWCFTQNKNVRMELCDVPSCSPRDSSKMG

B1: ROR2-241 full length human IgG1 antibody (antibody, V domains shown)
VH: EVQLVQSGAEVKKPGASVKVSCKASGYTFTNYYIHWVRQAPGQGLEWMGIINPTSGRTRYAQRFQGRVTMTRDTSTNTVYMDLSSLRSEDTAMYYCARSGYYWGVNGDQWGQGTLVTVSS
VL: SYELTQPLSVSVALGQTARITCGGNNIGSKNVHWYQQKPGQAPVLVIYRDSNRPSGIPERFSGSNSGNTATLTISRAQAGDEADYYCQVWDSSIVVFGGGTKLTVLG
binding intensity [1]: 29 | binding intensity [2]: 23 | binding intensity [3]: 238 | binding intensity [4]: 24 | binding intensity [5]: 16 | binding intensity [6]: 50 | binding intensity [7]: 58 | binding intensity [8]: 21 | binding intensity [9]: 54 | binding intensity [10]: 141 | binding intensity [11]: 58 | binding intensity [12]: 22 | binding intensity [13]: 56 | binding intensity [14]: 16 | binding intensity [15]: 5 | Kd [16]: 0.31 nM | koff [16]: 0.000538 s⁻¹ | kon [16]: 1.74e+06 M⁻¹ s⁻¹ | binding intensity [17]: 12 | binding intensity [18]: 17 | binding intensity [19]: 49 | binding intensity [20]: 53 | binding intensity [21]: 24 | binding intensity [22]: 36 | binding intensity [23]: 24 | binding intensity [24]: 19 | binding intensity [25]: 42 | binding intensity [26]: 20 | binding intensity [27]: 42

B2: ROR2-240 full length human IgG1 antibody (antibody, V domains shown)
VH: QITLKESGPELVKPTQTLTLTCTFSGFSLSTSGMSVSWIRQPPGKALEWLARIDWDDDKYYSTSLKTRLTISKDTSKNQVVLTMTNTDPVDTATYYCARGFYLAYGSYDSWGQGTLVTVSS
VL: QSALTQPASVSGSPGQSITISCTGTSGDVGGYNYVSWYQHHPGKAPKLIIYDVNKRPSGFSDRFSGSKSGNTASLTISGLQAEDEADYYCSSYTSTSTVFGGGTKLTVLG
notes: also called clone #240 IgG1
binding intensity [1]: 4 | binding intensity [2]: 4 | binding intensity [3]: 199 | binding intensity [4]: 6 | binding intensity [5]: 7 | binding intensity [6]: 29 | binding intensity [7]: 26 | binding intensity [8]: 3 | binding intensity [9]: 4 | binding intensity [10]: 113 | binding intensity [11]: 33 | binding intensity [12]: 4 | binding intensity [13]: 17 | binding intensity [14]: 5 | binding intensity [15]: 1 | Kd [16]: 0.063 nM | koff [16]: 4.45e-05 s⁻¹ | kon [16]: 706000 M⁻¹ s⁻¹ | binding intensity [17]: 10 | binding intensity [18]: 4 | binding intensity [19]: 36 | binding intensity [20]: 6 | binding intensity [21]: 4 | binding intensity [22]: 4 | binding intensity [23]: 7 | binding intensity [24]: 3 | binding intensity [25]: 39 | binding intensity [26]: 4 | binding intensity [27]: 5

B3: ROR2-23 full length human IgG1 antibody (antibody, V domains shown)
VH: EVQLVQSGAEVKKPGESLKISCQGSGYRFSKYWIGWVRQMPGKGLEWMGIIYPGDSDTRYSPSFQGQVTISADKSISTAYLQWSSLKASDTAMYYCARSFSSFIYDYWGQGTLVTVSS
VL: ETTLTQSPGTLSVSPGERATLSCRASQSVSSNLAWYQQKRGQAPRLLIYGASTRATGIPVRFSGSGSGTEFTLTISRLEPEDFAVYYCQQYGRSPLTFGGGTKVDIKR
notes: The light chain of clone 023 is labelled kappa; also called clone #23; clone #023 IgG1
binding intensity [1]: 44 | binding intensity [2]: 11 | binding intensity [3]: 182 | binding intensity [4]: 37 | binding intensity [5]: 30 | binding intensity [6]: 24 | binding intensity [7]: 26 | binding intensity [8]: 52 | binding intensity [9]: 30 | binding intensity [10]: 170 | binding intensity [11]: 35 | binding intensity [12]: 35 | binding intensity [13]: 32 | binding intensity [14]: 16 | binding intensity [15]: 7 | Kd [16]: 0.164 nM | koff [16]: 0.000432 s⁻¹ | kon [16]: 2.63e+06 M⁻¹ s⁻¹ | binding intensity [17]: 46 | binding intensity [18]: 37 | binding intensity [19]: 34 | binding intensity [20]: 71 | binding intensity [21]: 26 | binding intensity [22]: 30 | binding intensity [23]: 58 | binding intensity [24]: 10 | binding intensity [25]: 111 | binding intensity [26]: 20 | binding intensity [27]: 116
